experiment: yeast display, Sf9 membrane polyspecificity reagent, FACS + sequencing; frameworks hold sequencing errors
Summary of the method: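 A synthetic nanobody library was expressed on Saccharomyces cerevisiae BJ5465 by galactose induction for 36–48 hours. The library was stained for 1 hour at 4 °C with 10% biotinylated, detergent-solubilized Sf9 membrane reagent and enriched with streptavidin microbeads before FACS. Low and high (top ~1%) gates were set on anti-HA fluorescence for expression and streptavidin fluorescence for reagent binding, and each polyreactivity label reflects the gate of origin.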

| Sequence | polyreactivity (PSR sort gate) |
| --- | --- |
| QVQQQESGGVLVHAGGSLRLSCAASGTISPLPAMGWYRQAPGKEREFVAGIDTGAISNYADSVKGRFTISRDNAKNTVYLQMNSLKPEDTAVYYCAVFPAAYEYYVRYYTYWGQGTQVTVSS | low polyreactivity |
| QVQQQESRGGLVQAGGSLRLSCAASCTISQEDWMGWYRQAPGKEREFVAAIGLGSNTNYADSLKGRFTISRDNAKNTVYLQMNSLKPEDTAVYYCAVSVWQYSDHVYRGQGTQVTVSS | low polyreactivity |
| QVQREESGGGLVQAGGSLRLSCAASGSTFDAYAMGWYRQAPGKERELVAAITWSGGSTYYADSVKGRFTISRDNAKNTVYLQMNSLKPEATAVYYCAADKLGELDYWGQGTQVTVSS | low polyreactivity |
| QVQRLESGGGLVKAGGSLRLSCSASGIILPYYVMGWYRQAPGKEREFVADITWSGGSTYYADSVKGRFTISRDNAKNTVYLQMNSLKPEDTAVYYCAAEGPWYYFFDMDYWGQGTQVTVSS | high polyreactivity |
| QVQRLESVGRLVQAGGSLRLSSAPSGIIFRGYVMGWYIQARGKESELVAAITSSTGSTYYADSVKGRFTISRENAKNTGYLLMNILKPEDTAVYYCNVDYYVPNDGYEYWGQGTQVTVSS | low polyreactivity |
| QVQRVEEGRGLVQAGGTLRISCAASGSIFNQYAMGWYRHAPGQERELVAAITASGGSTYYAVSVKGRFTISRDNAKKTVYLQMNCLKPEDPAVYYCAKVELRDSAELGSDEYDYWGQGTQVTVSS | low polyreactivity |
| QVQRVESAGGLVQAGGSLRISCAASGSTLYKYAMGWYRQAPGKERELVAAISWSGSSTYYADSVKGRFTISRDNAKNTVYLQMNSLKPVDTAVYYCAAYPRPYIVYTDGYVWYEFDYWGQGTQVTVSS | low polyreactivity |
| QVQRVESCGGLVQAGGSLRLSCAASGSIFTQYTMGWYRQEPAKERELVAAISRSGGRTYYADSVKGRFTISRDNAKNTVYLQMNSLKPEDTAVYYCATRALYWRYGYDYWGQGTQVTVSS | high polyreactivity |
| QVQRVESGGALVQAGGSHRLSCAASGSIFYAYAMGWYRLAPGKERELVAAIRSSDSRTYYADSVKGRFTISRDNAKKTVYLQMNCLKPEETAVYYCAAEGSRNVKFDYCGQGTQVTVSS | high polyreactivity |
| QVQRVESGGGIVQAGGSHRLSCAASGSIFRYYAMGWYRQAPGKEREFVAAISSSGGSTYYADSVKGRFTISRDNAKNTVYLQMNSLKPEDTAVYYCARDWPSYYARQYDYWGQGTQVTVSS | high polyreactivity |
| QVQRVESGGGIVQAGGSLRLSCAASGSTFSYYAMGWYRQAPGKERELVAAISSSGGNTYYADSVKGRFTISRDNAKNTVYLQMNSLKPEDTAVYYCAKLYRYIYGGMDYWGQGTQVTVSS | high polyreactivity |
| QVQRVESGGGIVQARGSLRLSCAASGRIFKTNAMRCYRQSRGKERELVAAISSSGGSTYYADSVKGRFTISRDNAKNTVDLQRNSLNPEDTAVYYCAADGRTKGYDSLGQGTQVTVSS | high polyreactivity |
| QVQRVESGGGLVQAGGSLRLRCAASGRIFQGNAMGWYRQAPGKERELVAAITWRGGTTYYADSVKGRFTISRDNAKNTVYLQMNSLKPEDTAVYYCNADWWRTLESDYWGQGTQVTVSS | low polyreactivity |
| QVQRVESGGGLVQAGGSLRLSCAASGFIFDDKAMGWYRQAPGKERELVAAITSGGGSTYYADSVKGRFTISRDNAKNTVYLQMNSLKPEDTAVYYCNAVPSQHDEFDYWGQGTQVTVSS | low polyreactivity |
| QVQRVESGGGLVQAGGSLRLSCAASGGIFAVNVMGWYRPAPGKERELVAAITSTGSTYYADSVKGRFTISRDNAKNTVYLQMNSLKPEDTAVYYCAADYVYYDSYDDTVFGYEYWGQGTQVTVSS | high polyreactivity |
| QVQRVESGGGLVQAGGSLRLSCAASGGIFFYNAMGWYRQAPGIERELVATIRGGGSTNYADSVKGRFTISRDNAKNTVYLQMNSLKPEDTAVYFCAAVDRRGANYNYWGQGTQVTVSS | high polyreactivity |
| QVQRVESGGGLVQAGGSLRLSCAASGIIFGSYAMGGYRQAPGKERELVAAITSIGTRTYYADSVKGRFTISRDNAKNTVYLQMNSLKPEDTAVYYCNAPRFWSRHGLRDYWGQGTQVTVSS | high polyreactivity |
| QVQRVESGGGLVQAGGSLRLSCAASGIIFQSYAMGWYRHAPGKERELVAAISRRGGRTYYADSVKGRFTISRDNAKNTVYLQMNSLKPEDTAVYYCADRYRYAPYDYWGQGTQVTVSS | high polyreactivity |
| QVQRVESGGGLVQAGGSLRLSCAASGITFRTNTMGWYRQAPGKERELVAAITWDAGSTYYADSVKGRFTISRDNAKHTVYVQMKSLKPEDTAVYYCAARLSYLYGLYPYYYWGQGTQLTVSS | high polyreactivity |
| QVQRVESGGGLVQAGGSLRLSCAASGITFWGYAMGWYRQAPGKDREFVARINWSGGRTYYAESVKGRFRISRDNAKNTVYLQMNSLKPEDTAVYYCNVVLRSVVSGDYWGQGTQVTVSS | high polyreactivity |
| QVQRVESGGGLVQAGGSLRLSCAASGLTFDPKDMGWYRQAPGKERELVAAISWSSGSTYYADSVKGRFTISRDNAKNTVYLQMNSLKPEYTAVYYCAAYFTLLFGTELYDYDYWGQGTQVTVSS | high polyreactivity |
| QVQRVESGGGLVQAGGSLRLSCAASGNIFGYAMGWYRQAPGKERELVAAISRGGGTYYADSVKGRFTISRDNAKNTVYLQMNSLKPEDTADYYCAARLVKGYSRMNYWGQGTQVTVSS | high polyreactivity |

| Sequence | polyreactivity (PSR sort gate) |
| --- | --- |
| QVQRVESGGGLVQAGGSLRLSCAASGNIFVYYAMGWYRQAPGKERELVAAISSDVSTYYADSVKGRFTISRDNAKNTVYLQMNSLKPEDTAVYYCATTGYGSYVIYWGQGTQVTVSS | low polyreactivity |
| QVQRVESGGGLVQAGGSLRLSCAASGRIFLTNARGWYRQAPGKERELVPAITSGGSTYYADSVKGRFTISRDNAKNTVYLQMNSLKPEDTAVYYCNDDTDRYWPYEYDYWGQGTQVTVSS | low polyreactivity |
| QVQRVESGGGLVQAGGSLRLSCAASGSIFAVYAMGWYRQAPGNERELVAAINRSGDSTYFADSVKGRFTISRDNAKNTVYLQMKSLKPEDTAVYYCAADWYWWYTRSWVDYWGQGTQVTVSS | high polyreactivity |
| QVQRVESGGGLVQAGGSLRLSCAASGSLFYLYAMGWYRQAPGKERELVARITIRGGSTYYADSVKGRFTISRDNAKNTVYLQMNSLKPEDTAVYYCAARRPYGDYDYWGQGTQVTVSS | high polyreactivity |
| QVQRVESGGGLVQAGGSLRLSCAATGFTFSWYVMGWYRQAPGKERELVATITNRGGSTYYSDSVKGRFTISRDNAKNTVYLQMNSLKPEDPAVYYCAARKKGSRVGFDYWGQGTQVTVSS | high polyreactivity |
| QVQRVESGGGLVQAGGSLRLSCADSGFIFRRYAMGWYRQAPGKERELVAAITSSGGTTYYADSVKGRFTISRDNAKNTVYLQMNSLKPEDTAVYYCNAVRGVYARRSDYWGQGTEVTVSS | high polyreactivity |
| QVQRVESGGGLVQAGGSLRLSCDASGFTFAFYAMGWYRQAPGKERELVAAITGSGGSTYYADSVKGRFTISRDNAKNTVYLQMNRLKPEDTAVYYCNTYHQFSYDYWGQGTQVTVSS | high polyreactivity |
| QVQRVESGGGLVQAGGSLRLSSAACGRIFSTYAMGRYRQAPGKERDLVPAIDWDGGGTYYADSVKGRFTISRDNAKNTVYLQMNSLKPEDTAVYYCAAETDLANGTSPSDYWGQGTQVTVSS | low polyreactivity |
| QVQRVESGGGLVQAGGSLRLTSAGSGLTFILNAMGWYRQAPGKEREFVAAISRSGVRTYYADSVKGRFTISRDNAKNTVYLQMNSLKPEDTAVYYCAAAAQRGSKPRVELDYWGQGSQVTVSS | high polyreactivity |
| QVQRVESGGGLVQAGGTLRLSCAASGFIFGYYAMGWSRQAPGKERELVAAISRSGGRTYYADSVKGRFTISRANAKNTVYLQLNSLKPEDTAVYYCAKSGYQYADDMDYLGQGTQVTVSS | high polyreactivity |
| QVQRVESGGGLVQEGGSLRLSCAASGLIFAIYAMGWYRQAPGKDRELVAAMRWSGASTYADSVKGRFTNSRDNAYNTVYLQMISLKREDTAVYYCAADDLLDYDYWGQGTQVTVSS | low polyreactivity |
| QVQRVESGGRLVQAGGSLRLSCAASGFIFRYYAMGWYRQAPGKERELVAAISSRGGTTYYADSVKGRFTISRDNPNNTVYLQMNSLKPEDTPVDYGAAGGGRFRHGGRDYWGQGTQVTVSS | high polyreactivity |
| QVQRVESGGVLVQAGGSLRLSCAASGGIFYYYTMGWYRQAPGKERELVAAINWSGGSTYYADSVKGRFTISRDNAKNTVYLQMNSLKPEDTAVYYCNAVYRHPVTYGYWGQGTQVTVSS | high polyreactivity |
| QVQRVESGRGLVHAGGRLRLSCAASGSIFTYYPMGWSRPAPGKERELVAAISYSGGTTYYADSVKGRFTISRDNAKNTVYLQMNSLKPEDTAVYYCNVDADYESKWLSVGYDYWGQGTQVTVSS | low polyreactivity |
| QVQRVESGVGLVQAGGSLRLSCAASGLTFLWYAMGWYRQAPGKERELVAAITSGGRTKYADSVKGRFTISRDNAKNTVYLQMNSLKPEDTAVYYCAAYPQWWGYDYWGQGTQVTVSS | high polyreactivity |
| QVQRVESGVGLVQAGGSLRLSCAASGRIFRPYAMGWFRQARGNERELVAAITYSGGSTRYADSVKGRFTLSRDNAKNTVYIQMNSLKPEDTAVYYCAADLSYQDDPRWSYDYWGQGTHVTVSS | high polyreactivity |
| QVQRVESGVRLVQAGGSLRLSCASSGSIFRYYTMGWYRQAPGKERELVAAISRSGGSTYYADSVKGRFTISRDNAKNTVYLQMNSLKPVDTGVYYCAARYKRAQGYREGDYWGQGTQVTVSS | high polyreactivity |
| QVQRVESWGGLVQAGGSLRLSCAASGSIFDVYTMGWYRQAPGKERELVAAINTGGGSTYYADSVKGRFTISRDNAKNTVYFQMNSLKPEDTAVYYCAAQWWWKRPVRYEYWGQGTLVTVSS | low polyreactivity |
| QVQSVESGGGLVQAGGSLRLSCAASGRTFSIYGMGWYRQAPGKERELVAAISWRSGSTYYADSVKGRFTISRDNAKNTVYLKMNSLKPEDTAVYYCAKRYILGYKPYSYWGQGTQVTVSS | high polyreactivity |
| QVQVVDSGGGLVQAGGSLRLSCAASGLTIVKNVMGWYRQAPGKERELVAAISRRGGSTYYADSVKGRFTISRDNAKNTVYLQMNSLKPEDTAVYYCNAVLNQLSYIYPAVGYWGQGTQVTVSS | high polyreactivity |
| QVQVVESGGGFVQAGGSLSLSCAASGSTFPYYVMGCYREAPGKERELVAAISGSGTRTYYADSVKGRFTISRDNAKNTVYLQMNSLKPEDTAVYYCAARKYPQGFDYWGQGTQVTVSS | low polyreactivity |

Reference: the nanobody polyreactivity screen of Harvey et al. (2022)
